Data as given in US20030119733A1, “Compositions and methods for inhibiting hepatocyte invasion by malarial sporozoites” (New York University, priority 1992, published 2003).

Tests used:
[1] = Solid phase binding assay, sulfatide; settings: lipid dried into microtiter wells
Procedure: Solid phase binding assays: Thirty μl of lipids or steroids dissolved in methanol (20-250 μg/ml) were dried into wells of microassay plates (Cat.# 3911—Falcon—Oxnard, Calif.). The plates were then blocked with 1% BSA/PBS pH 7.4 (BSA/PBS) for 30 minutes. Wells were incubated with recombinant protein (or with parasite extract) in PBS/BSA for 1 hour, washed 3 times with BSA/PBS, incubated for 1 hour with monoclonal antibodies 2F2 or 2A10 in BSA/PBS, washed 3 times, and then incubated with (10^5 cpm/well) ^125I protein A (Amersham Corp., Arlington Hts., Ill.). In the case of the P. berghei CS protein, wells were incubated with ^125I labelled mAb 3D11. Wells were washed again and the bound radioactive protein was counted in an LKB gamma-counter (model #1260, Pharmacia, Inc., Gaithersburg, Md.). For inhibition assays, the recombinant proteins were mixed with dilutions of the various polymers in BSA/PBS, the mixture was loaded into the wells of the microtiter plates, and the binding assay performed as above. See also, Roberts, et al. J. Biol. Chem. 260:9405-9411, 1985.
1.4 nmol of sulfatide (open squares), cholesterol-3-sulfate (closed triangles), galactocerebroside I (closed circles), galactocerebroside II (open circles) and cholesterol (open triangles) were evaporated into microtiter wells and then incubated with serial dilutions of Vivax-2. […]

[2] = Clearance studies of 125I-labeled proteins; assay type: in vivo, mouse; settings: monomeric fraction of CS27IVC, or Falc-1; i.v., between 2 and 15 minutes
Procedure: Clearance Studies: Mice were anesthetized with ether, and injected with 10^5 cpm of ^125I-labeled CS27IVC or Falc-1 via the periorbital sinus. At two, five and fifteen minutes after injection, the mice were exsanguinated, the organs removed, rinsed in TBS, blotted dry on filter paper, and counted for radioactivity. To estimate the amounts of blood contaminating the various organs, we repeated the same procedure in mice injected with 100 μl (1.5×10^5 cpm) of ^51Cr-labeled RBC. The mean volumes of blood in the liver, spleen and kidney of the exsanguinated animals were 75, 24, and 35 μl respectively. In all other organs, the amount of blood was negligible, i.e., less than 15 μl. The percent of injected dose of CS which was retained in the various organs was calculated as described as follows: [formula]
Radiolabeled Falc-1 (FIG. 30B), and the aggregated (FIG. 30C) and monomeric (FIG. 30A) fractions of radiolabeled CS27IVC proteins were injected intravenously into the retroorbital sinuses of mice. The animals were sacrificed 2, 5 and 15 minutes later, and the amounts of CS in the blood and in various organs were measured. Additionally, the radioactivity associated with the various organs was calculated. […]

[3] = test system: hepatocyte microvilli in the Space of Disse; test: Electron immunomicroscopy of liver sections; assay type: binding, rat; settings: MAb 2A10 and gold conjugate
Procedure: Rat or mouse liver tissue or hepatocyte subcellular fractions from Example 2 were fixed in PBS containing 1% glutaraldehyde (grade 1, Sigma, St. Louis, Mo.) and 4% paraformaldehyde (Kodak, Rochester, N.Y.), dehydrated in ethanol, and embedded in LR White (Polysciences, Warrington, Wash.). (Frevert et al., Infect. and Immun. 60:2349-2360, June 1992.) Normal human liver was embedded in Lowicryl K4M (Ted Pella, Redding, Calif.). Ultrathin sections were labelled by incubating them sequentially with 10-50 μg/ml CS27IVC, CSFZ (Cys), Falc-2, or Falc-1 for 30 min.; 15 μg/ml MAb 2A10 for 30 min.; protein A-gold 15 nm (PAG15, 1:30; Amersham, Arlington, Ill.) or goat anti-mouse IgG gold 10 nm (GAM10, 1:30; Amersham) for 30 min. Control specimens were incubated in the absence of CS and only with the gold conjugates. Photographs were taken with a Philips EM 301 electron microscope.
To identify the hepatocyte structures interacting with the CS, glutaraldehyde-fixed and LR White-embedded thin sections of rat liver were incubated with the recombinant CS polypeptide CS27IVC, mAb 2A10 and goat anti-mouse IgG-gold and analyzed by immunoelectron microscopy. Human liver tissue embedded in K4M was also labelled with CS27IVC followed by MAb 2A10 and protein A-gold.

Molecule | binding to sulfatide [1] | injected counts recovered in the blood and in various organs [2] | gold labelling of liver sections [3]
Falciparum-1: Same as Falciparum-2 minus most of Region II+ (P. falciparum residues 43-348) (protein) AGTNLYNELEMNYYGKQENWYSLKKNSRSLGENDDGNNNNGDNGREGKDEDKRDGNNEDNEKLRKPKHKKLKQPGDGNPDPNANPNVDPNANPNVDPNANPNVDPNANPNANPNANPNANPNANPNANPNANPNANPNANPNANPNANPNANPNANPNANPNANPNVDPNANPNANPNANPNANPNANPNANPNANPNANPNANPNANPNANPNANPNANPNANPNANPNANPNANPNANPNANPNKNNQGNGQGHNMPNDPNRNVDENANANNAVKNNNNEEPSDKHIEQYLKKIKNSISTEWSP | did not bind | about 40% | negative
Falciparum-2: fragment of P. falciparum CS protein with repeats and Region II+ (residues 43-391) (protein) AGTNLYNELEMNYYGKQENWYSLKKNSRSLGENDDGNNNNGDNGREGKDEDKRDGNNEDNEKLRKPKHKKLKQPGDGNPDPNANPNVDPNANPNVDPNANPNVDPNANPNANPNANPNANPNANPNANPNANPNANPNANPNANPNANPNANPNANPNANPNANPNVDPNANPNANPNANPNANPNANPNANPNANPNANPNANPNANPNANPNANPNANPNANPNANPNANPNANPNANPNANPNKNNQGNGQGHNMPNDPNRNVDENANANNAVKNNNNEEPSDKHIEQYLKKIKNSISTEWSPCSVTCGNGIQVRIKPGSANKPKDELDYENDIEKKICKMEKCSS | specifically bound sulfatide |  | essentially the same results but with lower staining intensity
